Test results reported in patent US20190375786A1, “STABLE PEPTIDES AND METHODS OF USE THEREOF” (Fred Hutchinson Cancer Research Center, priority 2016, published 2019).

Legend:
pepsin = pepsin (Sus scrofa, UniProt P00791); assay: Pepsin digestion resistance in simulated gastric fluid, RP-HPLC; type: in vitro ADME, porcine; parameters: purchased Sigma Aldrich P7012; conditions: 500 U/ml pepsin in SGF pH 1.05, 30 minutes at 37.5° C.; HPLC peak vs untreated peptide
In short: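 Digestion resistance read by reversed-phase HPLC (C-18, 0.1% TFA, 5–45% acetonitrile over 10 min; 214/280 nm) after 12.5 μg peptide spent 30 min at 37.5 °C in pH 1.05 simulated gastric fluid, with or without 500 U/ml pepsin. Some samples quenched with Tris base and DTT.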

[1] = Resistance to reduction by DTT, RP-HPLC; type: physicochemical; conditions: 10 mM DTT in PBS, room temperature, 30 minutes; HPLC peak vs untreated peptide
In short: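 Peptide (12.5 μg from a 2 mg/ml stock, or 0.015 mM final in PBS) was held 30 min at room temperature with or without 10 mM DTT. Reduced and non-reduced forms were compared by C-18 RP-HPLC using a 5–45% acetonitrile/0.1% TFA gradient over 10 min, with detection at 214 and 280 nm.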

[2] = Resistance to elevated temperature, HPLC; type: physicochemical; conditions: HPLC peak vs untreated peptide; for Resistance to Temperature (75° C.): 75° C. for one hour; for Resistance to Temperature (100° C.): 100° C. for one hour
In short: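 Peptides were incubated at room temperature, 70° C or 100° C for one hour in ddH2O; another protocol used 70° C, 75° C or 100° C for one hour in 0.5 mM PBS, then pelleting and analysis of the supernatant. Remaining peptide was measured by C-18 RP-HPLC, 5–45% acetonitrile/0.1% TFA over 10 min.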

trypsin = trypsin (Sus scrofa, UniProt P00761); assay: Trypsin digestion resistance of soluble peptide, RP-HPLC; type: in vitro ADME, porcine; parameters: purchased Sigma Aldrich 6567; conditions: 500 U/ml trypsin, 30 minutes at 37.5° C.; HPLC peak vs untreated peptide
trypsin, sequence (P00761 9-231): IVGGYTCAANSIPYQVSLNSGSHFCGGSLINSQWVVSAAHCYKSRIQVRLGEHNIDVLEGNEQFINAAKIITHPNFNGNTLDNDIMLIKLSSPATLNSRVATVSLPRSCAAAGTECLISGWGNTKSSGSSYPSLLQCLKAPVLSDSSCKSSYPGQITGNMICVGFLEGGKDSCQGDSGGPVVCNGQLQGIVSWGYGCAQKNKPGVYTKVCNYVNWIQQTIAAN
In short: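 Read-out was RP-HPLC (C-18, water/acetonitrile with 0.1% TFA, 5-45% over 10 min) of peptide left after trypsin treatment. Digest: 12.5 μg peptide, 500 U/ml porcine trypsin, PBS, 37.5° C for 30 min, stopped by soybean trypsin inhibitor; samples then reduced (10 mM DTT) or left non-reduced.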

pepsin, sequence (P00791 60-385): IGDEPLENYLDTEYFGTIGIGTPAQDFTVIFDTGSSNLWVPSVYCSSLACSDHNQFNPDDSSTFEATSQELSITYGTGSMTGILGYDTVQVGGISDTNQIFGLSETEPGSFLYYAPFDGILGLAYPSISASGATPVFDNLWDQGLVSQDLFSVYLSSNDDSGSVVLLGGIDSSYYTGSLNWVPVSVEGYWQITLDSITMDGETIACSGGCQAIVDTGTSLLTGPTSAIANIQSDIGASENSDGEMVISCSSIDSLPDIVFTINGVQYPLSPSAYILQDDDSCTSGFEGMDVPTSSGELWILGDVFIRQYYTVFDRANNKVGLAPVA

19 (GSQDKCKKVYENYPVSKCQLANQCNYDCKLDKHARSGECFYDEKRNLQCICDYCEY) [compound 19]
Resistance to Pepsin (500 U/ml) (pepsin): High (A peptide classified as high indicates that the majority (at least 75%) of the HPLC peak of the treated peptide is still present as compared to the HPLC peak of the untreated peptide) | Resistance to DTT Reduction (10 mM) [1]: Low (A peptide classified as low indicates that the majority (over 75%) of the HPLC peak of the treated peptide disappeared as compared to the HPLC peak of the untreated peptide) | Resistance to Temperature (75° C.) [2]: High (A peptide classified as high indicates that the majority (at least 75%) of the HPLC peak of the treated peptide is still present as compared to the HPLC peak of the untreated peptide) | Resistance to Temperature (100° C.) [2]: Moderate (A peptide classified as medium indicates that about half (between 25% and 75%) of the HPLC peak of the treated peptide disappeared as compared to the HPLC peak of the untreated peptide) | Resistance to Trypsin (500 U/ml) (trypsin): High (A peptide classified as high indicates that the majority (at least 75%) of the HPLC peak of the treated peptide is still present as compared to the HPLC peak of the untreated peptide)

17 (GSACQFWSCNSSCISRGYRQGYCWGIQYKYCQCQ) [compound 17]
Resistance to Pepsin (500 U/ml) (pepsin): High (A peptide classified as high indicates that the majority (at least 75%) of the HPLC peak of the treated peptide is still present as compared to the HPLC peak of the untreated peptide) | Resistance to DTT Reduction (10 mM) [1]: Moderate (A peptide classified as medium indicates that about half (between 25% and 75%) of the HPLC peak of the treated peptide disappeared as compared to the HPLC peak of the untreated peptide) | Resistance to Temperature (75° C.) [2]: High (A peptide classified as high indicates that the majority (at least 75%) of the HPLC peak of the treated peptide is still present as compared to the HPLC peak of the untreated peptide) | Resistance to Temperature (100° C.) [2]: High (A peptide classified as high indicates that the majority (at least 75%) of the HPLC peak of the treated peptide is still present as compared to the HPLC peak of the untreated peptide) | Resistance to Trypsin (500 U/ml) (trypsin): Low (A peptide classified as low indicates that the majority (over 75%) of the HPLC peak of the treated peptide disappeared as compared to the HPLC peak of the untreated peptide)

21 (GSRCQLQGFNCVVRSYGLPTIPCCRGLTCRSYFPGSTYGRCQRY) [compound 21]
Resistance to Pepsin (500 U/ml) (pepsin): High (A peptide classified as high indicates that the majority (at least 75%) of the HPLC peak of the treated peptide is still present as compared to the HPLC peak of the untreated peptide) | Resistance to DTT Reduction (10 mM) [1]: Low (A peptide classified as low indicates that the majority (over 75%) of the HPLC peak of the treated peptide disappeared as compared to the HPLC peak of the untreated peptide) | Resistance to Temperature (75° C.) [2]: High (A peptide classified as high indicates that the majority (at least 75%) of the HPLC peak of the treated peptide is still present as compared to the HPLC peak of the untreated peptide) | Resistance to Temperature (100° C.) [2]: Low (A peptide classified as low indicates that the majority (over 75%) of the HPLC peak of the treated peptide disappeared as compared to the HPLC peak of the untreated peptide) | Resistance to Trypsin (500 U/ml) (trypsin): Moderate (A peptide classified as medium indicates that about half (between 25% and 75%) of the HPLC peak of the treated peptide disappeared as compared to the HPLC peak of the untreated peptide)

49 (GSSFGLCRLRRGFCARGRCRFPSIPIGRCSRFVQCCRRVW) [compound 49]
Resistance to Pepsin (500 U/ml) (pepsin): High (A peptide classified as high indicates that the majority (at least 75%) of the HPLC peak of the treated peptide is still present as compared to the HPLC peak of the untreated peptide) | Resistance to DTT Reduction (10 mM) [1]: Low (A peptide classified as low indicates that the majority (over 75%) of the HPLC peak of the treated peptide disappeared as compared to the HPLC peak of the untreated peptide) | Resistance to Temperature (75° C.) [2]: High (A peptide classified as high indicates that the majority (at least 75%) of the HPLC peak of the treated peptide is still present as compared to the HPLC peak of the untreated peptide) | Resistance to Temperature (100° C.) [2]: Low (A peptide classified as low indicates that the majority (over 75%) of the HPLC peak of the treated peptide disappeared as compared to the HPLC peak of the untreated peptide) | Resistance to Trypsin (500 U/ml) (trypsin): Low (A peptide classified as low indicates that the majority (over 75%) of the HPLC peak of the treated peptide disappeared as compared to the HPLC peak of the untreated peptide)

20 (GSGHACYRNCWREGNDEETCKERC) [compound 20]
Resistance to Pepsin (500 U/ml) (pepsin): High (A peptide classified as high indicates that the majority (at least 75%) of the HPLC peak of the treated peptide is still present as compared to the HPLC peak of the untreated peptide) | Resistance to DTT Reduction (10 mM) [1]: Low (A peptide classified as low indicates that the majority (over 75%) of the HPLC peak of the treated peptide disappeared as compared to the HPLC peak of the untreated peptide) | Resistance to Temperature (75° C.) [2]: High (A peptide classified as high indicates that the majority (at least 75%) of the HPLC peak of the treated peptide is still present as compared to the HPLC peak of the untreated peptide) | Resistance to Temperature (100° C.) [2]: Moderate (A peptide classified as medium indicates that about half (between 25% and 75%) of the HPLC peak of the treated peptide disappeared as compared to the HPLC peak of the untreated peptide) | Resistance to Trypsin (500 U/ml) (trypsin): High (A peptide classified as high indicates that the majority (at least 75%) of the HPLC peak of the treated peptide is still present as compared to the HPLC peak of the untreated peptide)

14 (GSSDYCSNDFCFFSCRRDRCARGDCENGKCVCKNCHLN) [compound 14]
Resistance to Pepsin (500 U/ml) (pepsin): Moderate (A peptide classified as medium indicates that about half (between 25% and 75%) of the HPLC peak of the treated peptide disappeared as compared to the HPLC peak of the untreated peptide) | Resistance to DTT Reduction (10 mM) [1]: Low (A peptide classified as low indicates that the majority (over 75%) of the HPLC peak of the treated peptide disappeared as compared to the HPLC peak of the untreated peptide) | Resistance to Temperature (75° C.) [2]: High (A peptide classified as high indicates that the majority (at least 75%) of the HPLC peak of the treated peptide is still present as compared to the HPLC peak of the untreated peptide) | Resistance to Temperature (100° C.) [2]: High (A peptide classified as high indicates that the majority (at least 75%) of the HPLC peak of the treated peptide is still present as compared to the HPLC peak of the untreated peptide) | Resistance to Trypsin (500 U/ml) (trypsin): Low (A peptide classified as low indicates that the majority (over 75%) of the HPLC peak of the treated peptide disappeared as compared to the HPLC peak of the untreated peptide)

50 (GSLFCKGGSCHFGGCPSHLIKVGSCFGFRSCCKWPWNA) [compound 50]
Resistance to Pepsin (500 U/ml) (pepsin): Low (A peptide classified as low indicates that the majority (over 75%) of the HPLC peak of the treated peptide disappeared as compared to the HPLC peak of the untreated peptide) | Resistance to DTT Reduction (10 mM) [1]: Low (A peptide classified as low indicates that the majority (over 75%) of the HPLC peak of the treated peptide disappeared as compared to the HPLC peak of the untreated peptide) | Resistance to Temperature (75° C.) [2]: High (A peptide classified as high indicates that the majority (at least 75%) of the HPLC peak of the treated peptide is still present as compared to the HPLC peak of the untreated peptide) | Resistance to Temperature (100° C.) [2]: Low (A peptide classified as low indicates that the majority (over 75%) of the HPLC peak of the treated peptide disappeared as compared to the HPLC peak of the untreated peptide) | Resistance to Trypsin (500 U/ml) (trypsin): Low (A peptide classified as low indicates that the majority (over 75%) of the HPLC peak of the treated peptide disappeared as compared to the HPLC peak of the untreated peptide)

34 (GSGCFGYKCDYYKGCCSGYVCSPTWKWCVRPGPGR) [compound 34]
Resistance to Pepsin (500 U/ml) (pepsin): Low (A peptide classified as low indicates that the majority (over 75%) of the HPLC peak of the treated peptide disappeared as compared to the HPLC peak of the untreated peptide) | Resistance to DTT Reduction (10 mM) [1]: Low (A peptide classified as low indicates that the majority (over 75%) of the HPLC peak of the treated peptide disappeared as compared to the HPLC peak of the untreated peptide) | Resistance to Temperature (75° C.) [2]: High (A peptide classified as high indicates that the majority (at least 75%) of the HPLC peak of the treated peptide is still present as compared to the HPLC peak of the untreated peptide) | Resistance to Temperature (100° C.) [2]: Low (A peptide classified as low indicates that the majority (over 75%) of the HPLC peak of the treated peptide disappeared as compared to the HPLC peak of the untreated peptide) | Resistance to Trypsin (500 U/ml) (trypsin): Low (A peptide classified as low indicates that the majority (over 75%) of the HPLC peak of the treated peptide disappeared as compared to the HPLC peak of the untreated peptide)
